Assays:
[1] = system: T1, MLK3 peptide HVRRRRGTFKRSKLRARD (SEQ ID NO:76)
T1 sequence: HVRRRRGTFKRSKLRARD

[2] = system: T2, PSCD2 peptide AARKKRISVKKKQEQ (SEQ ID NO:93)
T2 sequence: AARKKRISVKKKQEQ

[3] = system: T3, p164-RhoGEF peptide PRLIRRGSKKRPAR (SEQ ID NO:82)
T3 sequence: PRLIRRGSKKRPAR

[4] = system: T4, CREB1 peptide EILSRRPSYRKILND (SEQ ID NO:106)
T4 sequence: EILSRRPSYRKILND

[5] = system: T5, MACMARCKS peptide KKPFKLSGLSFKRNRKE (SEQ ID NO:88)
T5 sequence: KKPFKLSGLSFKRNRKE

[6] = system: T6, SYTL4 peptide RQGKRKTSIKRDTVNPL (SEQ ID NO:87)
T6 sequence: RQGKRKTSIKRDTVNPL

[7] = system: T7, ADD2 peptide KKKFRTPSFLKKSKK (SEQ ID NO:95)
T7 sequence: KKKFRTPSFLKKSKK

[8] = system: T8, CHRM1 peptide RKIPKRPGSVHRTPSRQ (SEQ ID NO:83)
T8 sequence: RKIPKRPGSVHRTPSRQ

[9] = system: T9, PARIS1 peptide EYLERRASRRRAV (SEQ ID NO:89)
T9 sequence: EYLERRASRRRAV

[10] = system: T10, PRKCA peptide RFARKGSLRQKNV (SEQ ID NO:85)
T10 sequence: RFARKGSLRQKNV

[11] = system: T11, PLEC1 peptide KRERKTSSKSSVRKRR (SEQ ID NO:81)
T11 sequence: KRERKTSSKSSVRKRR

[12] = system: T12, MYBPC3 peptide LLKKRDSFRTPRDSKLE (SEQ ID NO:103)
T12 sequence: LLKKRDSFRTPRDSKLE

[13] = system: T13, DGKZ peptide KKKKRASFKRKSSKKG (SEQ ID NO:77)
T13 sequence: KKKKRASFKRKSSKKG

[14] = system: T14, AKAP12 peptide AGWRKKTSFRKPKED (SEQ ID NO:99)
T14 sequence: AGWRKKTSFRKPKED

[15] = system: T15, ARHGAP6 peptide DGQKRKKSLRKKLD (SEQ ID NO:92)
T15 sequence: DGQKRKKSLRKKLD

[16] = system: T16, NCF1 peptide GAPPRRSSIRNAH (SEQ ID NO:101)
T16 sequence: GAPPRRSSIRNAH

[17] = system: T17, FLJ20574 peptide GENVLKKSMKSRVKG (SEQ ID NO:113)
T17 sequence: GENVLKKSMKSRVKG

[18] = system: T18, ANK1 peptide AQIVKRASLKRGKQ (SEQ ID NO:90)
T18 sequence: AQIVKRASLKRGKQ

[19] = system: T19, SPTBN4 peptide EGGDRRASGRRK (SEQ ID NO:110)
T19 sequence: EGGDRRASGRRK

[20] = system: T20, MARCKS peptide KKKKKRFSFKKSFKL (SEQ ID NO:80)
T20 sequence: KKKKKRFSFKKSFKL

[21] = system: T21, KCNH2 peptide RQRKRKLSFRRRTDKD (SEQ ID NO:86)
T21 sequence: RQRKRKLSFRRRTDKD

[22] = system: T22, ASIP peptide KKRSSKKEASMKKVVRP (SEQ ID NO:97)
T22 sequence: KKRSSKKEASMKKVVRP

[23] = system: T23, DGKI peptide NRKKKRTSFKRKA (SEQ ID NO:79)
T23 sequence: NRKKKRTSFKRKA

[24] = system: T24, ERN1 peptide KLAVGRHSFSRRSGV (SEQ ID NO:94)
T24 sequence: KLAVGRHSFSRRSGV

[25] = system: T25, LIMK2 peptide KATTKKRTLRKNDRK (SEQ ID NO:108)
T25 sequence: KATTKKRTLRKNDRK

[26] = system: T26, NEURL peptide ALRRPSLRREADD (SEQ ID NO:105)
T26 sequence: ALRRPSLRREADD

[27] = system: T27, NF1 peptide AGSFKRNSIKKIV (SEQ ID NO:102)
T27 sequence: AGSFKRNSIKKIV

[28] = system: T28, CACNA1C peptide RGFLRSASLGRRASFHLE (SEQ ID NO:96)
T28 sequence: RGFLRSASLGRRASFHLE

[29] = system: T29, PLEK peptide KFARKSTRRSIRLPE (SEQ ID NO:78)
T29 sequence: KFARKSTRRSIRLPE

[30] = system: T30, MARCKS peptide KKKRFSFKKSFKLSGFSFKK (SEQ ID NO:111)
T30 sequence: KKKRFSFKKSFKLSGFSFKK

[31] = system: T31, GABRB2 peptide QKKSRLRRRASQLKI (SEQ ID NO:84)
T31 sequence: QKKSRLRRRASQLKI

[32] = system: T32, EBNA1BP2 peptide KRPGKKGSNKRPGKR (SEQ ID NO:112)
T32 sequence: KRPGKKGSNKRPGKR

[33] = system: T33, PRKCM peptide VHYTSKDTLRKRHYWR (SEQ ID NO:91)
T33 sequence: VHYTSKDTLRKRHYWR

[34] = system: T34, SDPR peptide EKIKRSSLKKVDSLKK (SEQ ID NO:104)
T34 sequence: EKIKRSSLKKVDSLKK

[35] = system: T35, MAP3K14 peptide WKGKRRSKARKKRK (SEQ ID NO:100)
T35 sequence: WKGKRRSKARKKRK

[36] = system: T36, ARHGAP4 peptide AGPLRKSSLKKGGRL (SEQ ID NO:98)
T36 sequence: AGPLRKSSLKKGGRL

[37] = system: T37, PPP1R14A peptide QKRHARVTVKYDRRE (SEQ ID NO:107)
T37 sequence: QKRHARVTVKYDRRE

[38] = system: T38, NR4A3 peptide KEVVRTDSLKGRRGR (SEQ ID NO:109)
T38 sequence: KEVVRTDSLKGRRGR

Substance: AKT1
- in vitro phosphorylation (% of best substrate) [1]: 100
- in vitro phosphorylation (% of best substrate) [2]: 7
- in vitro phosphorylation (% of best substrate) [3]: 9
- in vitro phosphorylation (% of best substrate) [4]: 12
- in vitro phosphorylation (% of best substrate) [5]: 10
- in vitro phosphorylation (% of best substrate) [6]: 7
- in vitro phosphorylation (% of best substrate) [7]: 9
- in vitro phosphorylation (% of best substrate) [8]: 6
- in vitro phosphorylation (% of best substrate) [9]: 1
- in vitro phosphorylation (% of best substrate) [10]: 10
- in vitro phosphorylation (% of best substrate) [11]: 9
- in vitro phosphorylation (% of best substrate) [12]: 7
- in vitro phosphorylation (% of best substrate) [13]: 8
- in vitro phosphorylation (% of best substrate) [14]: 6
- in vitro phosphorylation (% of best substrate) [15]: 2
- in vitro phosphorylation (% of best substrate) [16]: 12
- in vitro phosphorylation (% of best substrate) [17]: 9
- in vitro phosphorylation (% of best substrate) [18]: 3
- in vitro phosphorylation (% of best substrate) [19]: 1
- in vitro phosphorylation (% of best substrate) [20]: 6
- in vitro phosphorylation (% of best substrate) [21]: 39
- in vitro phosphorylation (% of best substrate) [22]: 10
- in vitro phosphorylation (% of best substrate) [23]: 7
- in vitro phosphorylation (% of best substrate) [24]: 9
- in vitro phosphorylation (% of best substrate) [25]: 1
- in vitro phosphorylation (% of best substrate) [26]: 12
- in vitro phosphorylation (% of best substrate) [27]: 6
- in vitro phosphorylation (% of best substrate) [28]: 32
- in vitro phosphorylation (% of best substrate) [29]: 2
- in vitro phosphorylation (% of best substrate) [30]: 3
- in vitro phosphorylation (% of best substrate) [31]: 10
- in vitro phosphorylation (% of best substrate) [32]: 3
- in vitro phosphorylation (% of best substrate) [33]: 5
- in vitro phosphorylation (% of best substrate) [34]: 2
- in vitro phosphorylation (% of best substrate) [35]: 3
- in vitro phosphorylation (% of best substrate) [36]: 7
- in vitro phosphorylation (% of best substrate) [37]: 3
- in vitro phosphorylation (% of best substrate) [38]: 2

Substance: PKA
- in vitro phosphorylation (% of best substrate) [1]: 69
- in vitro phosphorylation (% of best substrate) [2]: 1
- in vitro phosphorylation (% of best substrate) [3]: 10
- in vitro phosphorylation (% of best substrate) [4]: 30
- in vitro phosphorylation (% of best substrate) [5]: 3
- in vitro phosphorylation (% of best substrate) [6]: 64
- in vitro phosphorylation (% of best substrate) [7]: 2
- in vitro phosphorylation (% of best substrate) [8]: 2
- in vitro phosphorylation (% of best substrate) [9]: 4
- in vitro phosphorylation (% of best substrate) [10]: 81
- in vitro phosphorylation (% of best substrate) [11]: 2
- in vitro phosphorylation (% of best substrate) [12]: 3
- in vitro phosphorylation (% of best substrate) [13]: 4
- in vitro phosphorylation (% of best substrate) [14]: 1
- in vitro phosphorylation (% of best substrate) [15]: 18
- in vitro phosphorylation (% of best substrate) [16]: 100
- in vitro phosphorylation (% of best substrate) [17]: 0
- in vitro phosphorylation (% of best substrate) [18]: 3
- in vitro phosphorylation (% of best substrate) [19]: 1
- in vitro phosphorylation (% of best substrate) [20]: 3
- in vitro phosphorylation (% of best substrate) [21]: 87
- in vitro phosphorylation (% of best substrate) [22]: 1
- in vitro phosphorylation (% of best substrate) [23]: 3
- in vitro phosphorylation (% of best substrate) [24]: 5
- in vitro phosphorylation (% of best substrate) [25]: 0
- in vitro phosphorylation (% of best substrate) [26]: 84
- in vitro phosphorylation (% of best substrate) [27]: 5
- in vitro phosphorylation (% of best substrate) [28]: 86
- in vitro phosphorylation (% of best substrate) [29]: 5
- in vitro phosphorylation (% of best substrate) [30]: 3
- in vitro phosphorylation (% of best substrate) [31]: 63
- in vitro phosphorylation (% of best substrate) [32]: 0
- in vitro phosphorylation (% of best substrate) [33]: 3
- in vitro phosphorylation (% of best substrate) [34]: 1
- in vitro phosphorylation (% of best substrate) [35]: 2
- in vitro phosphorylation (% of best substrate) [36]: 21
- in vitro phosphorylation (% of best substrate) [37]: 2
- in vitro phosphorylation (% of best substrate) [38]: 1
